Laboratory results taken from PMC2217618 (Apoptosis, 2007).
[ ]: non-standard residue; d: D form.

Target: αvβ3 integrin (human (endogenous in HUVEC), UniProt P06756;P05106)
Assay: radioligand binding

αvβ3 integrin, sequence (P06756 31-1048, chain 1 of 2): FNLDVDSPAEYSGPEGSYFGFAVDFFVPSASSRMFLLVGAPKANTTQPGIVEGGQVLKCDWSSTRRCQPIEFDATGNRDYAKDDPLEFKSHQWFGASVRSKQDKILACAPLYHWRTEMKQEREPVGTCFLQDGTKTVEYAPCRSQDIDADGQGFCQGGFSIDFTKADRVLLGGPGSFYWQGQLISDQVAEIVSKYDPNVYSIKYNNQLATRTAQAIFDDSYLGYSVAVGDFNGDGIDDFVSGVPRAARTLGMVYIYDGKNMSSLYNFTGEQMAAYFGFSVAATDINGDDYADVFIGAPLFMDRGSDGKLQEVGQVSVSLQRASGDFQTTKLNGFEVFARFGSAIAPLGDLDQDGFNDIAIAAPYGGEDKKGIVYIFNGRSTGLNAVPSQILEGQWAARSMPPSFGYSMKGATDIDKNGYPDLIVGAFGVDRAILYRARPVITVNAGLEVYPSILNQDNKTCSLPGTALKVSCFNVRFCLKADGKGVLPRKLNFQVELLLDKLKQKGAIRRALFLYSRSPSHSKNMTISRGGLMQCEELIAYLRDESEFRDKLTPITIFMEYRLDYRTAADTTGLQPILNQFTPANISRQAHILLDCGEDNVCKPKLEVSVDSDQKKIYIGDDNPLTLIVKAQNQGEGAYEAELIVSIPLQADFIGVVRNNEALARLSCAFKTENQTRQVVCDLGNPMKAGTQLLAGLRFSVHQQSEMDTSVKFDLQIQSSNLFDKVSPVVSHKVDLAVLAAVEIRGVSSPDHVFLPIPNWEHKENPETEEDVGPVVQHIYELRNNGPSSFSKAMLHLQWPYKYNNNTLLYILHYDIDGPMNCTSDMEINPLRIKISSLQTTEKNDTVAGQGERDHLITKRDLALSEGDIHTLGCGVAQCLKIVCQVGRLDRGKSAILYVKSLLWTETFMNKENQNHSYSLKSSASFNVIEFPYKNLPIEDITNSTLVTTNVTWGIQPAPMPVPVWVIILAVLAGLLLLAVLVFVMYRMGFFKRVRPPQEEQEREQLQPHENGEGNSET
αvβ3 integrin, sequence (P05106 27-788, chain 2 of 2): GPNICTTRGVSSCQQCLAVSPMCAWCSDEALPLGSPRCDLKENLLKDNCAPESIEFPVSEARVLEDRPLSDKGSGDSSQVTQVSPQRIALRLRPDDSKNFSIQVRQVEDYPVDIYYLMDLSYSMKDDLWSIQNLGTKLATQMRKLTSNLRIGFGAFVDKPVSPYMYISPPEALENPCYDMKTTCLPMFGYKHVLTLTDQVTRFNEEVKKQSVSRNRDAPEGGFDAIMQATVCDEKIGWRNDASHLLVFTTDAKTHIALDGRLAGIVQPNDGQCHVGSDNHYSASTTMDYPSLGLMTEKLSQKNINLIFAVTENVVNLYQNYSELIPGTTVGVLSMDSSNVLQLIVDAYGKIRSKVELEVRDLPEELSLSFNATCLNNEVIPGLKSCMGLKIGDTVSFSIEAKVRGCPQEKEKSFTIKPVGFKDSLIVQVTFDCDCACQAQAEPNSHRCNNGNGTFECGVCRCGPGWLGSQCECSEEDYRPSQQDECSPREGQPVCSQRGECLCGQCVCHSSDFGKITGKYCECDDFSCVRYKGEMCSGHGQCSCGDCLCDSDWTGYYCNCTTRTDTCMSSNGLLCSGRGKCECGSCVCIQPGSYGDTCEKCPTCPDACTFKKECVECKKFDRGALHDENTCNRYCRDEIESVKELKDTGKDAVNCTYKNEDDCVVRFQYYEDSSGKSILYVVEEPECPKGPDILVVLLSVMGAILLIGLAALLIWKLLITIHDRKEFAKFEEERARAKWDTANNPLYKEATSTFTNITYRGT

B1: RGD peptide c(RGDf(ε-S-acetylthioacetyl)K) (peptide)
peptide: cyclo(RGD[dF]K(S‑acetylthioacetyl))
- IC50: 383 nM
